# Experimental data from PMC8770708.
# Several values for one entry are separate records, joined by “and”; a condition that tells them apart may be missing. Equal values may be shown once.
# Tests used:
# [1] = target: TraB with a C-terminal double twin-Strep tag (TraB_(Strep4)), VirB10-like subunit of the pED208-encoded T4SS (IncFV plasmid pED208 (carried in E. coli)); assay: cryo-EM structure; OMCC purified in the same way from E. coli BL21(DE3, pKBV) producing only TraV, TraK and TraB_(Strep4); C13 reconstruction of the ORC, C17 and C16 reconstructions of the CC
# [2] = target: TraB with a C-terminal double twin-Strep tag (TraB_(Strep4)), VirB10-like subunit of the pED208-encoded T4SS (IncFV plasmid pED208 (carried in E. coli)); assay: cryo-EM structure; OMCC purified from E. coli MC4100(pED208-traB_(Strep4)) (WT) by StrepTrap and Superdex 200 in 50 mM Tris-HCl pH 8, 200 mM NaCl, 1 mM DTT, 1 mM EDTA, 0.06% DM-NPG, 0.1% digitonin; C1, C13 and C17 reconstructions
# [3] = target: TraK, VirB9-like subunit of the pED208-encoded T4SS (IncFV plasmid pED208 (carried in E. coli)); assay: as above
# [4] = target: TraV, VirB7-like lipoprotein subunit of the pED208-encoded T4SS (IncFV plasmid pED208 (carried in E. coli)); assay: as above
substance,measurement,setting,value
"TraB with a C-terminal double twin-Strep tag (TraB_(Strep4)), VirB10-like subunit of the pED208-encoded T4SS (natural protein)",stoichiometry N,[1],16 and 17
same,stoichiometry N,[2],17 copies
"TraK, VirB9-like subunit of the pED208-encoded T4SS (natural protein)",stoichiometry N,[3],26 copies
"TraV, VirB7-like lipoprotein subunit of the pED208-encoded T4SS (natural protein)",stoichiometry N,[4],26 copies
